{
  "source": "paper PMC11843895",
  "about": "“Single-Molecule Nanopore Sequencing of the CpG Island from the Promoter of O6-Methylguanine-DNA Methyltransferase Provides Insights into the Mechanism of De Novo Methylation of G/C-Rich Regions”",
  "key": {"[1]": {"target": "T1, Dnmt3a-CD (UniProt O88508 608-908)", "T1 sequence (O88508 608-908)": "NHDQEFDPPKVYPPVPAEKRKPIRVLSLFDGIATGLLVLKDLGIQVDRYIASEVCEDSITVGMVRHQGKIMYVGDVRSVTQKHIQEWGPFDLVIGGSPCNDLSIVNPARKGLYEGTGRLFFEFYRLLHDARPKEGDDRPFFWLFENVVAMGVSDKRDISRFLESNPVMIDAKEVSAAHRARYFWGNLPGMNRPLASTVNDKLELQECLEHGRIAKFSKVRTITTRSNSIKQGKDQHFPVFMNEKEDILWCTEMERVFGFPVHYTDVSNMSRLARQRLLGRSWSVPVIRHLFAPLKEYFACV", "experiment": "BLI; 100 uM AdoHcy; BLI: 20 mM HEPES-NaOH pH 7.5, 100 mM KCl, 1 mM EDTA, 0.2 mM DTT, 100 uM AdoHcy, 5% glycerol, 0.02% Tween-20, 0.5 mg/mL BSA, 25 C; inhibition: buffer A (20 mM HEPES-NaOH pH 7.5, 100 mM KCl, 1 mM EDTA, 1 mM DTT) with 25 uM AdoMet, 37 C; FP: buffer A", "details": "protein: recombinant, tags: N-terminal 6xHis, chain copies: 2"}, "[2]": {"target": "T1, Dnmt3a-CD", "experiment": "competition (inhibition of methylation); 300 nM MGMT-ds1-f substrate, 2 uM enzyme, 25 uM AdoMet; BLI: 20 mM HEPES-NaOH pH 7.5, 100 mM KCl, 1 mM EDTA, 0.2 mM DTT, 100 uM AdoHcy, 5% glycerol, 0.02% Tween-20, 0.5 mg/mL BSA, 25 C; inhibition: buffer A (20 mM HEPES-NaOH pH 7.5, 100 mM KCl, 1 mM EDTA, 1 mM DTT) with 25 uM AdoMet, 37 C; FP: buffer A", "details": "protein: recombinant, tags: N-terminal 6xHis, chain copies: 2"}},
  "data": [
    {"binder": "MGMT-ds1-bio (dsDNA) DNA 1: GGTCCTGCAGGCGCCCTCACTT DNA 2: AAGTGAGGGCGCCTGCAGGACC", "values": [
      {"measurement": "Kd", "setting": "[1]; label: 5' biotin on strand 1, blunt", "result": "0.065 ± 0.002", "unit": "µM"}
    ]},
    {"binder": "MGMT-ds2-bio (dsDNA) DNA 1: CTCCGCCCCCGCGCGCCCCGGCCC DNA 2: GGGCCGGGGCGCGCGGGGGCGGAG", "values": [
      {"measurement": "Kd", "setting": "[1]; label: 5' biotin on strand 1 (C-rich), blunt", "result": "0.015 ± 0.0005", "unit": "µM"}
    ]},
    {"binder": "GGGCCGGGGCGCGCGGGGGCGGAG (structured_DNA)", "note": "[MGMT-G4-bio]", "values": [
      {"measurement": "Kd", "setting": "[1]; label: 5' biotin, G4, mixed hybrid (CD of unlabeled MGMT-G4)", "result": "0.014 ± 0.0004", "unit": "µM"}
    ]},
    {"binder": "CTCCGCCCCCGCGCGCCCCGGCCC (ssDNA)", "note": "[MGMT-C-bio]", "values": [
      {"measurement": "Kd", "setting": "[1]; label: 5' biotin", "result": "0.211 ± 0.021", "unit": "µM"}
    ]},
    {"binder": "GGGCCGGGGCGCGCGGGGGCGGAG (structured_DNA)", "note": "[MGMT-G4]", "values": [
      {"measurement": "IC50", "setting": "[2]; G4, mixed hybrid (CD)", "result": "0.61 ± 0.03", "unit": "µM"}
    ]},
    {"binder": "GTGCCGGAGCGCGCGGAGGCGGAG (ssDNA)", "note": "[MGMT-G4-mut]", "values": [
      {"measurement": "IC50", "setting": "[2]; no G4 by CD", "result": "0.59 ± 0.09", "unit": "µM"}
    ]},
    {"binder": "CTGAATACTACTTCCTACCCCTTACCTGAT (ssDNA)", "note": "[non-specific control (no CpG)]", "values": [
      {"measurement": "IC50", "setting": "[2]", "result": "2.4 ± 0.7", "unit": "µM"}
    ]}
  ]
}
